Experimental data as given in the supplement of paper PMC10065799, “High-throughput profiling of sequence recognition by tyrosine kinases and SH2 domains using bacterial peptide display” (eLife, 2023).

Assays:
[1] = tested on: Fer (mouse); assay: phosphorylation enrichment, bacterial display (enrichment ratio); higher = better substrate or ligand; peptides without Tyr show the background
[2] = target: MERTK (UniProt Q12866); assay: as above
[3] = target: FGFR3 (UniProt P22607); assay: as above
[4] = target: FGFR1 (UniProt P11362); assay: as above
[5] = target: EPHB2 (UniProt P29323); assay: as above
[6] = tested on: c-Src; assay: as above
[7] = tested on: AncSZ; assay: as above
[8] = target: Jak2 (UniProt O60674); assay: as above
[9] = target: EPHB1 (UniProt P54762); assay: as above
[10] = target: Hck (UniProt P08631); assay: as above
[11] = tested on: c-Abl (mouse); assay: as above
[12] = target: Fes (UniProt P07332); assay: as above
[13] = target: Fyn (UniProt P06241); assay: as above
[14] = target: SHP2-C SH2; assay: SH2 binding enrichment of the phosphorylated peptide, bacterial display (enrichment ratio); higher = better substrate or ligand; peptides without Tyr show the background
[15] = target: Grb2 SH2 (UniProt P62993); assay: as above
[16] = target: c-Src SH2; assay: as above
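Throughout, for SH2 binding enrichment of the phosphorylated peptide, bacterial display: peptide library displayed on the E. coli surface as eCPX fusions, selected cells deep-sequenced, score is each peptide's frequency after selection divided by its frequency in the input.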
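Throughout, for phosphorylation enrichment, bacterial display: 11-residue human phosphosite peptides and single-mutation variants displayed on the E. coli surface, counted by deep sequencing, each peptide's frequency after selection divided by its frequency in the unselected input library; frequency after pTyr selection over input frequency; kinase dosed for 20-30% of maximal phosphorylation in three min.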

Chain of Grb2 SH2 (P62993 whole entry, looked up): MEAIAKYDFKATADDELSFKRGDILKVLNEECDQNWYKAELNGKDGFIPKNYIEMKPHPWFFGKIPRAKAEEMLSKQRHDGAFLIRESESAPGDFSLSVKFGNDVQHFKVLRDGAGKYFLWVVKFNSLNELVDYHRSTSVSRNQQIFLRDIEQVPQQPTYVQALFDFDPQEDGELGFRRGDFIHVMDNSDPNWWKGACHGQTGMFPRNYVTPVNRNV
Chain of EPHB2 (P29323 whole entry, looked up): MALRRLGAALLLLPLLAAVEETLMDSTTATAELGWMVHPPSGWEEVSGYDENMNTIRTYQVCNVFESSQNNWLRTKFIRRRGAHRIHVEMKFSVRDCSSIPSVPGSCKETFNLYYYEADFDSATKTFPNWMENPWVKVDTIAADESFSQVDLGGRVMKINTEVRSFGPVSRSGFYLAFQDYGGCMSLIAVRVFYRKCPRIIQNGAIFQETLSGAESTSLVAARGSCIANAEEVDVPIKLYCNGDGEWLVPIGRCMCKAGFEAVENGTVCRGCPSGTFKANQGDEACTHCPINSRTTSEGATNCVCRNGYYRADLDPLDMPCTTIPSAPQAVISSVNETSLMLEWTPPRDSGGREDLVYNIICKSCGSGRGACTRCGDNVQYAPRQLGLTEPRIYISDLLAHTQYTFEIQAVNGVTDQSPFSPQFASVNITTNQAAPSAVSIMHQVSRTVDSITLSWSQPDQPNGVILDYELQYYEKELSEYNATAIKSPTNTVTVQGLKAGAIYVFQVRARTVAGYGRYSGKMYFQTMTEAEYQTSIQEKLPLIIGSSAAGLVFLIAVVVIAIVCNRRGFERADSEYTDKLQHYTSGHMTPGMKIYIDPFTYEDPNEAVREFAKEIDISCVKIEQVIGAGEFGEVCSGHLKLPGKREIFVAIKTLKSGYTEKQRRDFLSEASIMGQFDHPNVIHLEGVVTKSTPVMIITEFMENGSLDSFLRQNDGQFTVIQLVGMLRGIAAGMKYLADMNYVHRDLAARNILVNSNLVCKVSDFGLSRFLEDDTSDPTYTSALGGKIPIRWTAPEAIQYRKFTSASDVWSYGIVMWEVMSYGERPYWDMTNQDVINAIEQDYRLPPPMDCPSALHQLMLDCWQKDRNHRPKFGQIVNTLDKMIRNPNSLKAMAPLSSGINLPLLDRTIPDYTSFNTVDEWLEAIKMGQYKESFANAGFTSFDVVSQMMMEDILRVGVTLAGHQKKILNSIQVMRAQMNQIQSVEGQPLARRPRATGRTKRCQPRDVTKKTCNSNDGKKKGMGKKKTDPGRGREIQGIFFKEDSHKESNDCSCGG
Chain of MERTK (Q12866 whole entry, looked up): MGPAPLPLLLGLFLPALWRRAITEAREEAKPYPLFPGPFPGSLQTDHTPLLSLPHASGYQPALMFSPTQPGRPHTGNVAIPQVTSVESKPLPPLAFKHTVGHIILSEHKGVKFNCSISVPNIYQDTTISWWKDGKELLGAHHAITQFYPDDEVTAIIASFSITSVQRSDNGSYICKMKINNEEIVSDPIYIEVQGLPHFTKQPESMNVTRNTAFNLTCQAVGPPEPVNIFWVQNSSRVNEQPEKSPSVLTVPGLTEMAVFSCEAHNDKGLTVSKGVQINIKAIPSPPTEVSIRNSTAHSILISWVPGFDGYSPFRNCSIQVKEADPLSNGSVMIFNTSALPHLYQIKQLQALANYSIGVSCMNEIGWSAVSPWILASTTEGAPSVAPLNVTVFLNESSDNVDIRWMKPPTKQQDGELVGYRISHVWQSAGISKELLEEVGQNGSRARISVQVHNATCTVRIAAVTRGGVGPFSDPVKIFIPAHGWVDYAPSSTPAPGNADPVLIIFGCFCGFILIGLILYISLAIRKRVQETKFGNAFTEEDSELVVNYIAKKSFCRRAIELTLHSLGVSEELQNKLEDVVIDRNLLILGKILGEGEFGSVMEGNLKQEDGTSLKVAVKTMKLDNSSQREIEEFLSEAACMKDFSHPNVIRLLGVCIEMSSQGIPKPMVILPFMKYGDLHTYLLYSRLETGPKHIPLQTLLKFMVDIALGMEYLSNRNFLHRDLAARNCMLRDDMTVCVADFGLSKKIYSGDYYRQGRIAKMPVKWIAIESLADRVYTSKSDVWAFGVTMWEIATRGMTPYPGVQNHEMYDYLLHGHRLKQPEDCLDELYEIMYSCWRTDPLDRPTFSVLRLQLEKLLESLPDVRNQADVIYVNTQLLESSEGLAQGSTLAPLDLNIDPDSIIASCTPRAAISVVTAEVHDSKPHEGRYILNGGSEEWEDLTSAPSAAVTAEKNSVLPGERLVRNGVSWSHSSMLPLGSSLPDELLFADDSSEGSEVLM
Chain of FGFR1 (P11362 whole entry, looked up): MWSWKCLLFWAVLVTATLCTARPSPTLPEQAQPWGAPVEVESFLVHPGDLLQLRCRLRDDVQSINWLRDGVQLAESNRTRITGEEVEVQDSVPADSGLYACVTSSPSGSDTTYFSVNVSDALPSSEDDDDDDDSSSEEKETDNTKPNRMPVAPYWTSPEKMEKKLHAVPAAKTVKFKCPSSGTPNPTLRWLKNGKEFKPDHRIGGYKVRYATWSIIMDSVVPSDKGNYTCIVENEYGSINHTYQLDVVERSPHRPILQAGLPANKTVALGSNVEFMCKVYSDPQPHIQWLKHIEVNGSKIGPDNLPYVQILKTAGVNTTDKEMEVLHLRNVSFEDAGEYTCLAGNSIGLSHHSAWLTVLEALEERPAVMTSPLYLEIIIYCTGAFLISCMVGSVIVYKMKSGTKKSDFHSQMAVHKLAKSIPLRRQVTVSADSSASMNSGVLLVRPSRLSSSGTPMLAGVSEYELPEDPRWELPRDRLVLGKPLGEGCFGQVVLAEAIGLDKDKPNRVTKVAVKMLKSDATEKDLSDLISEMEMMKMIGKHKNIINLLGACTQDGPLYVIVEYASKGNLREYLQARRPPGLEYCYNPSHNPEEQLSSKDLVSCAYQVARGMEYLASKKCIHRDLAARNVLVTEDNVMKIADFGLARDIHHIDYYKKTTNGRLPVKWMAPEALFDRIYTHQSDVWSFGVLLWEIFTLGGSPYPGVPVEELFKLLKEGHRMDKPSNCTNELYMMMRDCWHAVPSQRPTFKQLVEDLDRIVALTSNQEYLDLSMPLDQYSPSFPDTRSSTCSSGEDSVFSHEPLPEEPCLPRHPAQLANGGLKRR
Chain of FGFR3 (P22607 whole entry, looked up): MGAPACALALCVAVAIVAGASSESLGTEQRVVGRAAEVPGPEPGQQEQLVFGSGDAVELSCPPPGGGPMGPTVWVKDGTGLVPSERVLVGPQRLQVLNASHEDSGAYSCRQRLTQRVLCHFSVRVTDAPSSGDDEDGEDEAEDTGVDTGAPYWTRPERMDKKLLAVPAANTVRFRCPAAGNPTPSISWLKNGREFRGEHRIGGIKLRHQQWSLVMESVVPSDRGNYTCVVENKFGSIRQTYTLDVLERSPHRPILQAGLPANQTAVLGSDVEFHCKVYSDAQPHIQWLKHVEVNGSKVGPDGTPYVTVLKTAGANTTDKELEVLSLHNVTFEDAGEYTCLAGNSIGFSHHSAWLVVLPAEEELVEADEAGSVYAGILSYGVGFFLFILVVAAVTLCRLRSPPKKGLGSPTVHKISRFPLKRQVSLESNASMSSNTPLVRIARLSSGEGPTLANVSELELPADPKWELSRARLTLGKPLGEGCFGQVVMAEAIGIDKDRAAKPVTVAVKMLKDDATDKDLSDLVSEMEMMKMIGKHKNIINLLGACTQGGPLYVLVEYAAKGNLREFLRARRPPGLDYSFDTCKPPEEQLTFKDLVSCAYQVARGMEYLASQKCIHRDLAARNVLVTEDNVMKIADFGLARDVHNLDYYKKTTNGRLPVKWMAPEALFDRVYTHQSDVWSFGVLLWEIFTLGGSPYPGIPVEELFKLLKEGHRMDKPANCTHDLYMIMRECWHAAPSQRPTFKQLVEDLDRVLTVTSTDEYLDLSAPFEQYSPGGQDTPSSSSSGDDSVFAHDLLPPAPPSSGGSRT
Chain of Jak2 (O60674 whole entry, looked up): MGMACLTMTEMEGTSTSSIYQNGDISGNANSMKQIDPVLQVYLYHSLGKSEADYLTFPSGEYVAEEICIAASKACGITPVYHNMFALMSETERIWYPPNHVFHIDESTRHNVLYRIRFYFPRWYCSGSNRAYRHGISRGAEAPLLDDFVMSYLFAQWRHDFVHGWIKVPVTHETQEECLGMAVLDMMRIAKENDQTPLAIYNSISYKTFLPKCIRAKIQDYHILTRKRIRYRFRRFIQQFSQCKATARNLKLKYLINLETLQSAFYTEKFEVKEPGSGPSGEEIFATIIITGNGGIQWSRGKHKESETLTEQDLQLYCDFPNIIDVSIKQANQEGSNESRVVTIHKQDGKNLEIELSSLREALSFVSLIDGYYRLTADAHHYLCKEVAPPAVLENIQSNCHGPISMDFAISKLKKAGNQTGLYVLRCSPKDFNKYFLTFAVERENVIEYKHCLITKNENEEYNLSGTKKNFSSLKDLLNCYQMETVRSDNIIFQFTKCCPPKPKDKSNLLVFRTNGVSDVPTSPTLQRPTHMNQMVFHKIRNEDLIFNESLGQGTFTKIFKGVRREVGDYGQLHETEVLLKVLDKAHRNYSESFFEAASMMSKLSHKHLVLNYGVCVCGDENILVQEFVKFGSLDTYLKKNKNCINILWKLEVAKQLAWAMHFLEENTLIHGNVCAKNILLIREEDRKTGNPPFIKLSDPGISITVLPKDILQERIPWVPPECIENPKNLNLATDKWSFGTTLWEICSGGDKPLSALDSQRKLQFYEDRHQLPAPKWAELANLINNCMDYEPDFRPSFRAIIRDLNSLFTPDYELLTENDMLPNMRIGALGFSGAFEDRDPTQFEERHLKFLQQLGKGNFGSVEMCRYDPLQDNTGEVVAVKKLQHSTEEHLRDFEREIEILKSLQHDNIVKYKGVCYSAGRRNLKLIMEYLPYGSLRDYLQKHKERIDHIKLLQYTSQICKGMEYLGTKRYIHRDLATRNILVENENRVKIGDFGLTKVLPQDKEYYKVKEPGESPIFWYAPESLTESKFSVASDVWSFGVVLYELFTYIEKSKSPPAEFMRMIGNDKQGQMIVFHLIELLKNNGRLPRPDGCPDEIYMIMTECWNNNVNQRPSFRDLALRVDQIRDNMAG

Sequence | phosphorylation enrichment [1] | phosphorylation enrichment [2] | phosphorylation enrichment [3] | phosphorylation enrichment [4] | phosphorylation enrichment [5] | phosphorylation enrichment [6] | phosphorylation enrichment [7] | phosphorylation enrichment [8] | phosphorylation enrichment [9] | phosphorylation enrichment [10] | phosphorylation enrichment [11] | phosphorylation enrichment [12] | phosphorylation enrichment [13] | SH2 binding enrichment [14] | SH2 binding enrichment [15] | SH2 binding enrichment [16]
SLDLSYYTTSS [EMD_Y181_P183T] | 0.462 | 0.614 | 0.989 | 0.872 | 0.601 | 0.755 | 0.921 | 1.45 | 0.596 | 0.576 | 0.976 | 1.12 | 0.53 | 0.851 | 0.955 | 1.58
GMIQAYSSSQR [DES_Y5_S2I] | 0.319 | 0.357 | 0.389 | 0.384 | 0.334 | 0.37 | 0.485 | 0.442 | 0.401 | 0.412 | 0.42 | 0.509 | 0.346 | 0.712 | 0.872 | 0.759
FTRNFYVWAVL [CYBA_Y88_R90W_YF] | 0.466 | 0.454 | 0.756 | 0.498 | 0.383 | 0.508 | 1.25 | 1.31 | 0.573 | 0.473 | 1.61 | 1.42 | 0.427 | 0.737 | 1.09 | 0.633
KLQKFYRKNPD [EHHADH_Y683_Q685K_YF] | 0.302 | 0.449 | 0.329 | 0.401 | 0.32 | 0.48 | 0.447 | 0.469 | 0.348 | 0.402 | 0.549 | 0.541 | 0.389 | 0.702 | 0.86 | 0.638
TNLVPYTRIHF [TUBA1A_Y262_P263T] | 0.385 | 0.374 | 0.506 | 0.468 | 0.423 | 0.441 | 0.765 | 0.682 | 0.455 | 0.487 | 0.469 | 0.829 | 0.45 | 40.4 | 1.05 | 2.64
SVVMPYEPPEV [TP53_Y220_V218M] | 0.549 | 0.492 | 0.674 | 0.559 | 0.595 | 0.482 | 1.27 | 0.897 | 0.559 | 0.481 | 0.66 | 1.12 | 0.56 | 0.738 | 0.877 | 1.06
GDGRFYMMEAI [PGM1_Y66_K68M] | 0.539 | 0.46 | 0.731 | 0.511 | 0.553 | 0.88 | 1.04 | 1.16 | 0.569 | 0.459 | 0.735 | 1.26 | 0.51 | 0.584 | 0.683 | 0.419
RRKRAYVEIEY [MAK16_Y282_Q277R] | 0.996 | 1.22 | 1.18 | 0.731 | 1.06 | 0.999 | 1.37 | 1.54 | 1.02 | 1.13 | 1.04 | 1.21 | 0.667 | 0.938 | 1.32 | 0.37
AFGEVYEGQES [ALK_Y1131_V1135E] | 0.478 | 0.438 | 0.645 | 0.485 | 0.622 | 0.75 | 1.32 | 1.14 | 0.526 | 0.629 | 0.842 | 1.05 | 0.598 | 0.677 | 0.842 | 0.557
TIMTNYNPNFC [ALK_Y1092_D1091N_YF] | 0.512 | 0.485 | 0.694 | 0.576 | 0.784 | 0.533 | 0.987 | 0.865 | 0.43 | 0.5 | 0.716 | 1.06 | 0.545 | 0.531 | 0.775 | 0.478
KLLLKYSFHDA [RNF213_Y4141_V4146A] | 0.476 | 0.39 | 0.672 | 0.484 | 0.615 | 0.385 | 1.05 | 0.993 | 0.616 | 0.418 | 0.616 | 1.3 | 0.367 | 1.02 | 1.16 | 0.81
FPMLNYKDIRK [CFAP221_Y798] | 0.362 | 0.431 | 0.408 | 0.346 | 0.384 | 0.416 | 0.49 | 0.469 | 0.292 | 0.441 | 0.398 | 0.628 | 0.493 | 0.635 | 0.976 | 0.516
RHAASYSSDSE [REPS1_Y116] | 0.578 | 0.51 | 0.611 | 0.513 | 0.381 | 0.607 | 0.702 | 1.19 | 0.382 | 0.41 | 0.627 | 0.806 | 0.737 | 0.735 | 0.985 | 0.569
VIECSYTSADG [DHCR7_Y382] | 0.496 | 0.423 | 0.623 | 0.544 | 0.538 | 0.556 | 1.02 | 0.934 | 0.524 | 0.471 | 0.825 | 1.39 | 0.478 | 0.601 | 0.837 | 1.63
FSDPSYVKQME [CDC5L_Y464_YF] | 0.452 | 0.407 | 1.36 | 0.558 | 0.581 | 0.411 | 0.867 | 0.704 | 0.476 | 0.505 | 0.471 | 0.939 | 0.532 | 0.892 | 0.883 | 0.518
RRNTPYSQTMK [TET2_Y819_S817T] | 0.512 | 0.503 | 0.431 | 0.273 | 0.365 | 0.44 | 0.55 | 0.708 | 0.252 | 0.367 | 0.422 | 0.626 | 0.428 | 1.12 | 1.23 | 0.611
LRVKMYNFLRS [ADGRG7_Y760] | 1.08 | 1.19 | 2.58 | 1.71 | 2.15 | 0.868 | 2.63 | 1.47 | 1.41 | 1.59 | 1.25 | 3.22 | 1.75 | 0.623 | 1.24 | 1.1

Sequence | phosphorylation enrichment [1] | phosphorylation enrichment [2] | phosphorylation enrichment [3] | phosphorylation enrichment [4] | phosphorylation enrichment [5] | phosphorylation enrichment [6] | phosphorylation enrichment [7] | phosphorylation enrichment [8] | phosphorylation enrichment [9] | phosphorylation enrichment [10] | phosphorylation enrichment [11] | phosphorylation enrichment [12] | phosphorylation enrichment [13] | SH2 binding enrichment [14] | SH2 binding enrichment [15] | SH2 binding enrichment [16]
QLLIKYPPEEV [ZZZ3_Y670] | 0.473 | 0.858 | 0.95 | 0.811 | 0.816 | 0.604 | 1.25 | 1.39 | 0.898 | 0.566 | 1.25 | 1.62 | 0.7 | 1 | 0.848 | 0.626
REVVNYVQKRS [RMI1_Y450_N455S] | 0.525 | 0.68 | 0.835 | 0.65 | 0.35 | 0.564 | 0.981 | 0.468 | 0.459 | 0.484 | 0.519 | 1.01 | 0.581 | 0.511 | 0.826 | 0.515
TLMNAYSSRSH [KIF11_Y231] | 0.514 | 0.636 | 0.44 | 0.449 | 0.517 | 0.54 | 0.675 | 1.08 | 0.436 | 0.516 | 0.57 | 0.579 | 0.517 | 0.552 | 0.707 | 0.427
IDPYIYTPFGS [CYP3A4_Y432] | 1.9 | 3.67 | 1.66 | 2.44 | 0.701 | 6.67 | 1.43 | 2.38 | 0.702 | 5.71 | 0.865 | 0.956 | 7.45 | 0.868 | 0.775 | 0.713
RRIHSYRGFLW [VHL_Y112_H115Y_YF] | 0.458 | 0.577 | 0.378 | 0.389 | 1.73 | 0.552 | 0.622 | 0.577 | 0.343 | 0.377 | 0.426 | 0.575 | 0.577 | 0.666 | 0.801 | 0.581
STGWSYAGVAV [KLHL3_Y577_R575W] | 0.616 | 0.352 | 0.549 | 0.484 | 0.454 | 0.462 | 0.929 | 0.69 | 0.515 | 0.581 | 0.463 | 0.776 | 0.416 | 0.965 | 0.718 | 0.529
GVRLYYRVRES [RB1_Y454_M457R] | 0.483 | 0.403 | 0.781 | 0.662 | 0.447 | 0.285 | 1.54 | 0.964 | 0.435 | 0.408 | 0.39 | 1.08 | 0.435 | 0.872 | 0.769 | 0.393
GCKNRYDKGKP [THAP1_Y14_D17G] | 0.4 | 0.408 | 1.04 | 0.387 | 0.469 | 0.406 | 0.597 | 0.876 | 0.481 | 0.496 | 0.798 | 0.867 | 0.434 | 1.32 | 1.5 | 1.32
NREGVYTVFAP [TGFBI_Y537] | 8.74 | 11.4 | 1.07 | 0.885 | 2.04 | 8.95 | 1.54 | 0.862 | 2.35 | 10 | 1.57 | 1.11 | 13.3 | 0.516 | 0.688 | 0.604
TEIGQYGNGLK [MORC2_Y100_Q96E] | 0.394 | 0.354 | 0.499 | 0.404 | 0.434 | 0.331 | 0.522 | 0.588 | 0.543 | 0.448 | 0.556 | 0.579 | 0.393 | 0.432 | 0.662 | 0.51
VQNIVYRTASI [CYP39A1_Y102] | 0.34 | 0.334 | 0.442 | 0.414 | 0.396 | 0.356 | 0.706 | 0.581 | 0.335 | 0.36 | 0.467 | 0.619 | 0.382 | 0.889 | 0.689 | 0.447
TVDASYCGGRG [ANTXR2_Y380_Y381C] | 0.402 | 0.452 | 0.437 | 0.496 | 0.516 | 0.351 | 0.558 | 0.558 | 0.393 | 0.436 | 0.465 | 0.695 | 0.383 | 0.914 | 0.757 | 0.567
ATYRGYDSDNP [MMUT_Y146_H143Y] | 0.409 | 0.365 | 0.543 | 0.453 | 0.431 | 0.626 | 0.742 | 0.658 | 0.427 | 0.444 | 0.476 | 0.751 | 0.528 | 0.562 | 0.862 | 0.526
EPTPSYEVGQR [TSC2_Y1788_G1787S] | 0.408 | 0.383 | 0.581 | 0.462 | 0.426 | 0.428 | 0.726 | 0.686 | 0.443 | 0.486 | 0.627 | 0.895 | 0.427 | 0.738 | 0.827 | 0.533
VGSEDYGWDLT [SPTAN1_Y1792_R1794W] | 0.463 | 0.36 | 0.726 | 0.489 | 0.732 | 0.419 | 1.2 | 0.967 | 0.602 | 0.443 | 0.724 | 1.16 | 0.384 | 0.852 | 0.824 | 0.515
FGIAQYCCRMG [LRRK2_Y2023_YF] | 0.467 | 1.25 | 0.584 | 0.614 | 6.66 | 0.417 | 0.908 | 0.625 | 0.751 | 0.777 | 1.34 | 0.797 | 0.423 | 0.836 | 1.26 | 0.936
